Laboratory results published in patent US20250136678A1 (BIOSION, published 2025).

B1: huE1B1B8C7-V2 (antibody, human IgG1, kappa, V domains shown)
VH: QVQLVQSGAEVKKPGASVKVSCKASGYSFTNYWVNWVRQAPGQGLEWIGMVHPSGSETRLNQQFKDKATLTVDTSTSTVYMELSSLRSEDTAVYYCARVWSGNAFDYWGQGTLVTVSS
VL: DIVMTQSPDSLAVSLGERATINCLSSQSLLASGNQRNYLTWYQQKPGQPPKLLIYWASTRDSGVPDRFTGSGSGVDFTLTISSVQAEDVAVYYCQNGFSFPFTFGQGTKLEIKR
notes: Humanized, human IgG1/kappa; X positions as numbered in CLM-00003 and CLM-00004
B2: huE1B1B8C7-V6 (antibody, human IgG1, kappa, V domains shown)
VH: QVQLVQSGAEVKKPGASVKVSCKASGYSFTNYWVNWVRQAPGQGLEWIGMVHPSGSETRLNQQFKDKVTLTVDTSTSTVYMELSSLRSEDTAVYYCARVWSGNAFDYWGQGTLVTVSS
VL: DIVMTQSPDSLAVSLGERATINCLSSQSLLASGNQRNYLTWYQQKPGQPPKLLIYWASTRDSGVPDRFTGSGSGVDFTLTISSVQAEDVAVYYCQNGFSFPFTFGQGTKLEIKR
notes: as for B1
B3: huE1B1B8C7-V7 (antibody, human IgG1, kappa, V domains shown)
VH: QVQLVQSGAEVKKPGASVKVSCKASGYSFTNYWVNWVRQAPGQGLEWIGMVHPSGSETRLNQQFKDKATMTVDTSTSTVYMELSSLRSEDTAVYYCARVWSGNAFDYWGQGTLVTVSS
VL: DIVMTQSPDSLAVSLGERATINCLSSQSLLASGNQRNYLTWYQQKPGQPPKLLIYWASTRDSGVPDRFTGSGSGVDFTLTISSVQAEDVAVYYCQNGFSFPFTFGQGTKLEIKR
notes: as for B1
B4: huE1B1B8C7-V9 (antibody, human IgG1, kappa, V domains shown)
VH: QVQLVQSGAEVKKPGASVKVSCKASGYSFTNYWVNWVRQAPGQGLEWIGMVHPSGSETRLNQQFKDKATLTVDKSTSTAYMELSSLRSEDTAVYYCARVWSGNAFDYWGQGTLVTVSS
VL: DIVMTQSPDSLAVSLGERATINCLSSQSLLASGNQRNYLTWYQQKPGQPPKLLIYWASTRDSGVPDRFSGSGSGVDFTLTISSVQAEDVAVYYCQNGFSFPFTFGQGTKLEIKR
notes: as for B1
B5: huE1B1B8C7-V5 (antibody, human IgG1, kappa, V domains shown)
VH: QVQLVQSGAEVKKPGASVKVSCKASGYSFTNYWVNWVRQAPGQGLEWIGMVHPSGSETRLNQQFKDRATLTVDTSTSTVYMELSSLRSEDTAVYYCARVWSGNAFDYWGQGTLVTVSS
VL: DIVMTQSPDSLAVSLGERATINCLSSQSLLASGNQRNYLTWYQQKPGQPPKLLIYWASTRDSGVPDRFTGSGSGVDFTLTISSVQAEDVAVYYCQNGFSFPFTFGQGTKLEIKR
notes: as for B1
B6: huE1B1B8C7-V3 (antibody, human IgG1, kappa, V domains shown)
VH: QVQLVQSGAEVKKPGASVKVSCKASGYTFTNYWVNWVRQAPGQGLEWIGMVHPSGSETRLNQQFKDKATLTVDTSTSTVYMELSSLRSEDTAVYYCARVWSGNAFDYWGQGTLVTVSS
VL: DIVMTQSPDSLAVSLGERATINCLSSQSLLASGNQRNYLTWYQQKPGQPPKLLIYWASTRDSGVPDRFTGSGSGVDFTLTISSVQAEDVAVYYCQNGFSFPFTFGQGTKLEIKR
notes: as for B1
B7: huE1B1B8C7-V4 (antibody, human IgG1, kappa, V domains shown)
VH: QVQLVQSGAEVKKPGASVKVSCKASGYSFTNYWVNWVRQAPGQGLEWMGMVHPSGSETRLNQQFKDKATLTVDTSTSTVYMELSSLRSEDTAVYYCARVWSGNAFDYWGQGTLVTVSS
VL: DIVMTQSPDSLAVSLGERATINCLSSQSLLASGNQRNYLTWYQQKPGQPPKLLIYWASTRDSGVPDRFTGSGSGVDFTLTISSVQAEDVAVYYCQNGFSFPFTFGQGTKLEIKR
notes: as for B1
B8: huE1B1B8C7-V1 (antibody, human IgG1, kappa, V domains shown)
VH: QVQLVQSGAEVKKPGASVKVSCKASGYSFTNYWVNWVRQAPGQGLEWIGMVHPSGSETRLNQQFKDKATLTVDKSTSTAYMELSSLRSEDTAVYYCARVWSGNAFDYWGQGTLVTVSS
VL: DIVMTQSPDSLAVSLGERATINCLSSQSLLASGNQRNYLTWYQQKPGQPPKLLIYWASTRDSGVPDRFTGSGSGVDFTLTISSVQAEDVAVYYCQNGFSFPFTFGQGTKLEIKR
notes: as for B1
B9: huE1B1B8C7-V13 (antibody, human IgG1, kappa, V domains shown)
VH: QVQLVQSGAEVKKPGASVKVSCKASGYSFTNYWVNWVRQAPGQGLEWIGMVHPSGSETRLNQQFKDKATLTVDTSTSTVYMELSSLRSEDTAVYYCARVWSGNAFDYWGQGTLVTVSS
VL: DIVMTQSPDSLAVSLGERATINCLSSQSLLASGNQRNYLTWYQQKPGQPPKLLIYWASTRDSGVPDRFTGSGSGTDFTLTISSVQAEDVAVYYCQNGFSFPFTFGQGTKLEIKR
notes: as for B1

target: T1, human CLDN18.2 (NP_001002026.1) (human, UniProt P56856-2 1-261); assay: cell-based binding FACS on BAF3-CLDN18.2 cells, MFI against Con of mAb, nM is the unit of the x axis; curve lies in a bundle of overlapping curves reaching MFI about 5000-6000
T1 construct: whole, on cells; KATO III cells also served as target cells in the ADCC assay; also called Claudin18.2; Claudin-18 splice variant 2
Method: (§1) The BAF3-CLDN18.2, BAF3-CLDN18.1 and BAF3 cells were harvested, washed twice and re-suspended in phosphate buffered saline (PBS) containing 2% v/v Fetal Bovine Serum (FACS buffer), BAF3 cells were used here as blank control. The cells, 1×10⁵ per well, were incubated in 96 well-plates with 100 μl serially diluted antibodies or controls (starting from 10 μg/mL, 5-fold serial dilution) in FACS buffer for 50 minutes on ice. […] Following an incubation of 50 minutes at 4° C. in dark, cells were washed three times and re-suspended in FACS buffer. Fluorescence was measured using a Becton Dickinson FACS Canto II-HTS equipment, and the MFI (mean fluorescence intensity) was plotted against antibody concentration. Data was analyzed using Graphpad Prism and EC₅₀ values were reported.

Binder | EC50 [nM]
B1 | 5.18
B2 | 3.1
B3 | 3.89
B4 | 2.31
B5 | 4.33
B6 | 3.7
B7 | 3.63
B8 | 3.32

target: T1, human CLDN18.2 (NP_001002026.1); assay: cell-based binding FACS on BAF3-CLDN18.2 cells, MFI against Con of mAb, nM is the unit of the x axis; curve lies in a bundle of close curves reaching MFI about 5300-5900
Method: as §1

Binder | EC50 [nM]
B9 | 3.46
